{"source": "paper doi:10.1101/2023.12.03.569830", "about": "(bioRxiv, 2023)", "target": "T1, surface-exposed domain of TraN (TraN^surf), N-terminal hexa-histidine tag (Salmonella enterica serovar Typhimurium …)", "T1 chain": "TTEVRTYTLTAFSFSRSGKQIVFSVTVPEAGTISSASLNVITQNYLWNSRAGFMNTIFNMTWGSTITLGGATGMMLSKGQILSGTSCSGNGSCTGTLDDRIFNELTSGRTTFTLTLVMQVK", "experiment": "ITC", "data": [{"binder": "Nb^traN (TraN-specific nanobody), C-terminal hexa-histidine tag (VHH) VHH: QVQLQESGGGLVQAGGSLRLSCAASGTIFDGVDMGWYRQAPGKEREFVAGITAGSSTYYADSVKGRFTISRDNAKNTVYLQMNSLKPEDTAVYYCAAYPLDEIGSHDPHSYWGQGTQVTVSS", "values": [{"measurement": "Kd", "result": 4.45, "unit": "µM"}]}]}
